Laboratory results: patent US5834244
pKi: −log10 of the molar value. One block for each substance: values may come before it.

Legend:
[1] = biological target: tissue factor-Factor VIIa complex (human Factor VIIa with recombinant human tissue factor 1-243) (human) (UniProt P08709); assay: apparent Ki* for TF-FVIIa; method not told at this place
[2] = biological target: tissue factor-Factor VIIa complex (human Factor VIIa with recombinant human tissue factor 1-243) (human) (UniProt P08709); assay: chromogenic enzyme inhibition assay under equilibrium conditions; apparent Ki*
[3] = biological target: human plasma kallikrein (human) (UniProt P03952)
human Factor XIa (human) = human Factor XIa (human) (UniProt P03951)
[4] = biological target: tissue factor-Factor VIIa complex (human Factor VIIa with recombinant human tissue factor 1-243) (human) (UniProt P08709); assay: chromogenic enzyme inhibition assay, FVIIa 10 nM, TF1-243 50 nM; apparent Ki* by fit to the tight-binding equation
[5] = biological target: rabbit TF-FVIIa in the PT assay (rabbit thromboplastin with rabbit plasma) (rabbit)

pKi [1]: 6.22
Substance: first Kunitz domain of TFPI

Substance: APPI, Alzheimer's amyloid β-protein precursor inhibitor
pKi [2]: 6.52
fold prolongation of clotting time, APTT assay in normal human plasma (fold prolongation at 40 µM inhibitor) [3]: 3.6
fold prolongation of clotting time, APTT assay in normal human plasma (fold prolongation at 40 µM inhibitor) (human Factor XIa (human)): 3.6
pKi [4]: 6.52
fold increase of clotting time over baseline, PT assay in rabbit plasma (fold increase over baseline at 40 µM) [5]: 1.4
